Assay results taken from patent US20260116937A1 (published 2026).

Tests used:
human C3b [1] = biological target: T1, human C3b (human, UniProt P01024 749-1663; P01024 23-667); assay: ELISA
human C3b [2] = biological target: T1, human C3b; assay: ELISA; remark: listed apart in the source
human C3b [3] = biological target: T1, human C3b; assay: ELISA; culture supernatant

T1 sequence (P01024 749-1663, chain 1 of 2): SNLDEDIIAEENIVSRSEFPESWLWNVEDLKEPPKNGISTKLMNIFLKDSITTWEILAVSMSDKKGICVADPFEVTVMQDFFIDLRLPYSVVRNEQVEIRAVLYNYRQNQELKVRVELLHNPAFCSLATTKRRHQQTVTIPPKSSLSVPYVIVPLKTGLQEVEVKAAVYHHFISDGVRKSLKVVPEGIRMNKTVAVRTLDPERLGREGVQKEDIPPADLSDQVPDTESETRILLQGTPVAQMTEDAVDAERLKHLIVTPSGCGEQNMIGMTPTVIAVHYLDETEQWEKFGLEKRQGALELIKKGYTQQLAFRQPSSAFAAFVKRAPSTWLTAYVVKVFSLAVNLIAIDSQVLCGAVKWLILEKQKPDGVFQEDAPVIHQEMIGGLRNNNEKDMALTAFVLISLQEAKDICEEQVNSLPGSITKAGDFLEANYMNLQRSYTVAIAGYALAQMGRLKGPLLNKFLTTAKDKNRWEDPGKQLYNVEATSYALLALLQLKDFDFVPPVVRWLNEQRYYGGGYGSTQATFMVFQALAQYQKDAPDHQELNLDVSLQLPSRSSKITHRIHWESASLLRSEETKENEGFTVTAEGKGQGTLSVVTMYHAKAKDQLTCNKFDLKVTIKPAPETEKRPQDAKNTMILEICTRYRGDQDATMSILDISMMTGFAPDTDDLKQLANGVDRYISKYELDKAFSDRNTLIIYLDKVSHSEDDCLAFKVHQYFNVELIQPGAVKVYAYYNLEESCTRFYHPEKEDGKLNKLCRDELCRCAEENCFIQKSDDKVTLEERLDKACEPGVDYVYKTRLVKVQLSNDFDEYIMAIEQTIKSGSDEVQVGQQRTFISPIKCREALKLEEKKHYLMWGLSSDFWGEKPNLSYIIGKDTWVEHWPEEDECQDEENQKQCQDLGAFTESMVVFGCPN
T1 sequence (P01024 23-667, chain 2 of 2): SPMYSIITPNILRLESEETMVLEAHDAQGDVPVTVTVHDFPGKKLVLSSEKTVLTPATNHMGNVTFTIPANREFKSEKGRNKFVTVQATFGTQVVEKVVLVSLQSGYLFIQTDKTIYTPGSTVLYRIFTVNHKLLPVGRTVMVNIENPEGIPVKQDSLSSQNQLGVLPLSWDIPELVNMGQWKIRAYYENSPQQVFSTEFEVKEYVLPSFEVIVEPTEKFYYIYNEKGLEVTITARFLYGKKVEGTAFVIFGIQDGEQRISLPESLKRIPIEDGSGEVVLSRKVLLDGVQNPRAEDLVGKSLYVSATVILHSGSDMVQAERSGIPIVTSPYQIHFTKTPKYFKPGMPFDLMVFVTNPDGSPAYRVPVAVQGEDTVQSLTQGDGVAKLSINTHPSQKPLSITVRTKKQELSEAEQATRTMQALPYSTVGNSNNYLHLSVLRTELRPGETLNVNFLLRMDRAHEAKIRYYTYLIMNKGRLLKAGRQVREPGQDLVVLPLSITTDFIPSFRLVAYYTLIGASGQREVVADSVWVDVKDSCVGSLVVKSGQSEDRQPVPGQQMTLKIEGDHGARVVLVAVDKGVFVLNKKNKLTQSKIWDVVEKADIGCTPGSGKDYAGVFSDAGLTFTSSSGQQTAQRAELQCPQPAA

Binder | EC50 (human C3b [1]) [nM] | EC50 (human C3b [2]) [nM] | EC50 (human C3b [3]) [nM]
Var004 (engineered variant of FHL-1) (designed binder) EDCNELPPRRNTEILTGSWSDQTYPEGTQAIYKCRPGYRSLGNVIMVCRKGEWVALNPLRKCQKRPCGHPGDTPFGTFTLTGGNVFEYGVKAVYTCNEGYQLLGEINYRECDTDGWTNDIPICEVVKCLPVTAPENGKIVSSAMEPDREYHFGQAVRFVCNSGYKIEGDEEMHCSDDGFWSKEKPKCVEISCKSPDVINGSPISQKIIYKENERFQYKCNMGYEYSERGDAVCTESGWRPLPSCEEKSCDNPYIPNGDYSPLRIKHRTGDEITYQCRNGFYPATRGNTAKCTSTGWIPAPRCTLKPCDYPDIKHGGLYHENMRRPYFPVAVGKYYSYYCDEHFETPSGSYWDHIHCTQDGWSPAVPCLRKCYFPYLENGYNQNYGRKFVQGKSIDVACHPGYALPKAQTTVTCMENGWSPTPRCIRVSGGGGSGGGGSGGGGSTLKPCDYPDIKHGGLYHENMRRPYFPVAVGKYYSYYCDEHFETPSGSYWDHIHCTQDGWSPAVPCLRKCYFPYLENGYNQNYGRKFVQGKSIDVACHPGYALPKAQTTVTCMENGWSPTPRCIRVSFTL |  |  | 2.5
Factor H-like protein 1 (FHL-1) (other) EDCNELPPRRNTEILTGSWSDQTYPEGTQAIYKCRPGYRSLGNVIMVCRKGEWVALNPLRKCQKRPCGHPGDTPFGTFTLTGGNVFEYGVKAVYTCNEGYQLLGEINYRECDTDGWTNDIPICEVVKCLPVTAPENGKIVSSAMEPDREYHFGQAVRFVCNSGYKIEGDEEMHCSDDGFWSKEKPKCVEISCKSPDVINGSPISQKIIYKENERFQYKCNMGYEYSERGDAVCTESGWRPLPSCEEKSCDNPYIPNGDYSPLRIKHRTGDEITYQCRNGFYPATRGNTAKCTSTGWIPAPRCTLKPCDYPDIKHGGLYHENMRRPYFPVAVGKYYSYYCDEHFETPSGSYWDHIHCTQDGWSPAVPCLRKCYFPYLENGYNQNYGRKFVQGKSIDVACHPGYALPKAQTTVTCMENGWSPTPRCIRVSFTL |  | 7.4 | 

More lines, now with the values ahead:

EC50 (human C3b [1]) [nM] | EC50 (human C3b [2]) [nM] | EC50 (human C3b [3]) [nM] | Binder
1.2 | 4.5 |  | complement factor H (CFH) (other) EDCNELPPRRNTEILTGSWSDQTYPEGTQAIYKCRPGYRSLGNVIMVCRKGEWVALNPLRKCQKRPCGHPGDTPFGTFTLTGGNVFEYGVKAVYTCNEGYQLLGEINYRECDTDGWTNDIPICEVVKCLPVTAPENGKIVSSAMEPDREYHFGQAVRFVCNSGYKIEGDEEMHCSDDGFWSKEKPKCVEISCKSPDVINGSPISQKIIYKENERFQYKCNMGYEYSERGDAVCTESGWRPLPSCEEKSCDNPYIPNGDYSPLRIKHRTGDEITYQCRNGFYPATRGNTAKCTSTGWIPAPRCTLKPCDYPDIKHGGLYHENMRRPYFPVAVGKYYSYYCDEHFETPSGSYWDHIHCTQDGWSPAVPCLRKCYFPYLENGYNQNYGRKFVQGKSIDVACHPGYALPKAQTTVTCMENGWSPTPRCIRVKTCSKSSIDIENGFISESQYTYALKEKAKYQCKLGYVTADGETSGSITCGKDGWSAQPTCIKSCDIPVFMNARTKNDFTWFKLNDTLDYECHDGYESNTGSTTGSIVCGYNGWSDLPICYERECELPKIDVHLVPDRKKDQYKVGEVLKFSCKPGFTIVGPNSVQCYHFGLSPDLPICKEQVQSCGPPPELLNGNVKEKTKEEYGHSEVVEYYCNPRFLMKGPNKIQCVDGEWTTLPVCIVEESTCGDIPELEHGWAQLSSPPYYYGDSVEFNCSESFTMIGHRSITCIHGVWTQLPQCVAIDKLKKCKSSNLIILEEHLKNKKEFDHNSNIRYRCRGKEGWIHTVCINGRWDPEVNCSMAQIQLCPPPPQIPNSHNMTTTLNYRDGEKVSVLCQENYLIQEGEEITCKDGRWQSIPLCVEKIPCSQPPQIEHGTINSSRSSQESYAHGTKLSYTCEGGFRISEENETTCYMGKWSSPPQCEGLPCKSPPEISHGVVAHMSDSYQYGEEVTYKCFEGFGIDGPAIAKCLGEKWSHPPSCIKTDCLSLPSFENAIPMGEKKDVYKAGEQVTYTCATYYKMDGASNVTCINSRWTGRPTCRDTSCVNPPTVQNAYIVSRQMSKYPSGERVRYQCRSPYEMFGDEEVMCLNGNWTEPPQCKDSTGKCGPPPPIDNGDITSFPLSVYAPASSVEYQCQNLYQLEGNKRITCRNGQWSEPPKCLHPCVISREIMENYNIALRWTAKQKLYSRTGESVEFVCKRGYRLSSRSHTLRTTCWDGKLEYPTCAKR
 | 0.4 |  | Var108 (glycoengineered variant of FHL-1, G442N in the Var004 framework) (designed binder, N-linked glycosylation at the engineered NxS/T motif (G442N), >90% glycosylated monomer) EDCNELPPRRNTEILTGSWSDQTYPEGTQAIYKCRPGYRSLGNVIMVCRKGEWVALNPLRKCQKRPCGHPGDTPFGTFTLTGGNVFEYGVKAVYTCNEGYQLLGEINYRECDTDGWTNDIPICEVVKCLPVTAPENGKIVSSAMEPDREYHFGQAVRFVCNSGYKIEGDEEMHCSDDGFWSKEKPKCVEISCKSPDVINGSPISQKIIYKENERFQYKCNMGYEYSERGDAVCTESGWRPLPSCEEKSCDNPYIPNGDYSPLRIKHRTGDEITYQCRNGFYPATRGNTAKCTSTGWIPAPRCTLKPCDYPDIKHGGLYHENMRRPYFPVAVGKYYSYYCDEHFETPSGSYWDHIHCTQDGWSPAVPCLRKCYFPYLENGYNQNYGRKFVQGKSIDVACHPGYALPKAQTTVTCMENGWSPTPRCIRVSGGGGSGGGGSGGGNSTLKPCDYPDIKHGGLYHENMRRPYFPVAVGKYYSYYCDEHFETPSGSYWDHIHCTQDGWSPAVPCLRKCYFPYLENGYNQNYGRKFVQGKSIDVACHPGYALPKAQTTVTCMENGWSPTPRCIRVSFTL
